Results taken from patent publication US20240189458A1, “METHODS FOR IN VIVO DELIVERY OF MICROBES TO HUMAN MICROENVIRONMENTS” (priority 2021, published 2024).
Ends that are not written are not given here.

Legend:
Type in all cases: cell-based
[1] = target: T1, S. Typhimurium PhoPQ (Salmonella typhimurium, UniProt P0DM80); assay: SLAY-TCS: surface-displayed peptides in KB1, single strains, flow cytometry; conditions: KB1, IPTG-induced display
T1 construct: expressed in transfected cells; host or cells: E. coli BW30007 (lacks E. coli phoPQ) with the cassette integrated in the genome = strain KB1
Text: In SLAY, peptides of interest are expressed at the C-terminus of a fusion protein consisting of the Lpp signal peptide, an OmpA transmembrane domain, and a flexible tether. […] In addition to PvirK-mNG, each of these plasmids encodes a SLAY fusion protein under the control of an isopropyl-β-D-thiogalactoside (IPTG)-inducible promoter (Ptac) (FIG. 25). Ptac is tightly repressed, to avoid potential toxicity arising from leaky AMP expression in the absence of inducer. […] Finally, a no-peptide control plasmid encoding a stop codon was constructed instead of a peptide following the OmpA transmembrane domain.

[2] = target: T1, S. Typhimurium PhoPQ; assay: SLAY-TCS sort-seq screen of KB1 human AMP library; conditions: for sort-seq fold activation of PhoPQ relative to no-peptide control: KB1 library, 500 μM IPTG
Text: PhoQ senses diverse human AMPs: To characterize the response of PhoQ to most human AMPs, 133 human AMPs in the Antimicrobial Peptide Database (APD3) were first identified). From this set, 16 (12%) were excluded exceeding 104 amino acids in length due to size restrictions of commercial oligonucleotide synthesis. The remaining set of 117 AMPs vary in charge, length, hydrophobicity, and secondary structure, and comprise 11 clusters of high sequence similarity. These clusters include families of mature AMPs processed from a single precursor peptide (e.g. products of cathelicidin, human defensin 5, and β-amyloid) and peptides with high sequence similarity that are produced from distinct genes (e.g. CXCL1, CXCL2, and CXCL3).
This plasmid library was transformed into KB1. Using Illumina NGS, it was validated that sequences encoding all 117 human AMPs, along with no-peptide controls, are present in the KB1 human AMP library. Variants of human AMPs were also identified that likely resulted from errors in oligo synthesis or plasmid assembly. As expected, these variants generally had lower representation in the library than the human AMPs.
Next, sort-seq was utilized to characterize the effect of each peptide on PhoPQ activity. First, the KB1 human AMP library was grown in the presence of 500 μM IPTG, which induces sufficient expression of positive control AMPs to strongly activate PhoPQ (FIG. 25D). Then, FACS was used to sort these bacteria into eight logarithmically-spaced mNG fluorescence bins (FIG. 26B). The bins were designed to span the fluorescence distributions of negative (no peptide) and positive (C18G) PhoQ activity control strains measured on the same day. […] Next, Illumina NGS was used to sequence the peptide-encoding DNA regions from bacteria in each bin and estimated the mean mNG fluorescence level of each strain using the relative abundances of peptide-encoding sequences across fluorescence bins. These estimated fluorescence values were divided by the estimated mean fluorescence of the no-peptide control to calculate the fold activation of PhoPQ in response to each peptide in the library.

[3] = target: T2, KB1 PhoQ H277A (Salmonella typhimurium, UniProt P0DM80, H277A); assay: Negative control strains (S. Typhimurium lacking phoQ; KB1 PhoQ H277A)
T2 construct: expressed in transfected cells; host or cells: E. coli KB1 derivative (BW30007 background)
T2 sequence (P0DM80 1-487 H277A): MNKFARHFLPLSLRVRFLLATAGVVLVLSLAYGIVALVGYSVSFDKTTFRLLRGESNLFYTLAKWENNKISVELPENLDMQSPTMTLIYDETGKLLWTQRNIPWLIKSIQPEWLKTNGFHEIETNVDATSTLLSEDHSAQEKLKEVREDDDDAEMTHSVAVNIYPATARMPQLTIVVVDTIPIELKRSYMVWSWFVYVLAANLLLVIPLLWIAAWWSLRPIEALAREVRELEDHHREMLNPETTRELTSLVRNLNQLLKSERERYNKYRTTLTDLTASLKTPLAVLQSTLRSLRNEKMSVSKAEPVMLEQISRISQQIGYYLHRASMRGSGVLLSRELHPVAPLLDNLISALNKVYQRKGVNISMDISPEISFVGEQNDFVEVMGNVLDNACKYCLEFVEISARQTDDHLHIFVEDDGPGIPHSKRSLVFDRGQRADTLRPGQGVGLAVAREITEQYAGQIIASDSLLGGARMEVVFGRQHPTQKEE
Experimental: This plasmid was transformed into both S. Typhimurium and KB1 to measure PhoPQ activation by the positive control AMP LL-37. […] LL-37 response was also measured in two negative control strains: an S. Typhimurium strain lacking phoQ and a KB1 derivative in which the catalytic histidine of PhoQ was mutated to an alanine (KB1 PhoQ H277A).

T1 sequence (P0DM80 whole entry): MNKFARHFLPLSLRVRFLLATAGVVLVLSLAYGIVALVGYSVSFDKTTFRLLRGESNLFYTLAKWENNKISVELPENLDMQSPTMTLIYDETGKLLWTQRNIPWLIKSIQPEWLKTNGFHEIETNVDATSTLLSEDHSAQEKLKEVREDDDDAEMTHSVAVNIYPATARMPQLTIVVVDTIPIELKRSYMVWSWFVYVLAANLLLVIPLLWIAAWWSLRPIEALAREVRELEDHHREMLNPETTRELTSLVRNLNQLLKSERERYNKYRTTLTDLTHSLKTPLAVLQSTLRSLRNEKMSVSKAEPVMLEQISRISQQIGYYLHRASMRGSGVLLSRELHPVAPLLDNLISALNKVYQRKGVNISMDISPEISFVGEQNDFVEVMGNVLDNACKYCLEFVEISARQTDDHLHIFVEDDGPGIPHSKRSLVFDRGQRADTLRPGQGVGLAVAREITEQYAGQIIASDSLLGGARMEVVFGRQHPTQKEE

Substance | PhoPQ activation by surface-displayed peptide [1] | sort-seq fold activation of PhoPQ relative to no-peptide control [2] | human AMPs sensed by PhoPQ [2] | other results
HNP-1: human defensin, negative control peptide | do not activate PhoPQ | does not activate mNG expression | – | –
protegrin-1: positive control AMP containing disulfide bonds (RGGRLCYCRRRFCVCVGR; disulfide (positions not given here); ends not checked; also: disulfide bonds, pairing not given here; UniProt P32194 131-148, looked up) | activates PhoPQ | – | – | PhoPQ activation by surface-displayed AMPs in PhoQ H277A strain ([3]; KB1 PhoQ H277A): slight increase in mNG fluorescence
LL-37 | – | 5.2 fold | – | LL-37 response in negative control strains ([3]; S. Typhimurium lacking phoQ and KB1 PhoQ H277A): Neither negative control strain responds
CCL20 | – | – | senses | –
hBD3: human β-defensin 3 (GIINTLQKYYCRVRGGRCAVLSCLPKEEQIGKCSTRGRKCCRRKK; ends and bridges not checked; cysteine pairing not given here; UniProt P81534 23-67, looked up) | – | – | senses | –
NPY: neuropeptide Y | – | – | senses | –
